Assay results from publication PMC4726241, “Crystal structure and SUMO binding of Slx1-Slx4 complex” (Scientific Reports, 2016).

Target: T1, Slx1^RING+CT-Slx4^CCD complex (S. pombe, UniProt Q9P7M3 176-271; Q9P6M0 352-419)
T1 construct: Slx4, Schizosaccharomyces pombe, C-terminal conserved domain, residues 352-419; source: E. coli, co-expressed, purified by a procedure similar to that of Slx1^RING-Slx4^CCD; not shown: His6, N-terminal, cleaved
T1 sequence (looked up) 1: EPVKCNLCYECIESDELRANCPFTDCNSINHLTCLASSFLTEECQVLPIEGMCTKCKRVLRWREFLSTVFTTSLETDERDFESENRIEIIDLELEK
T1 sequence (looked up) 2: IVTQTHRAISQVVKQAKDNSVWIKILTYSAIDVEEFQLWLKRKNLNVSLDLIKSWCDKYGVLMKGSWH
Assay: ITC; 2.37 mM Pmt3 injected into 120 μM complex in the cell; 25 °C; 20 mM sodium phosphate pH 6.8, 100 mM NaCl; three repeats
Conditions: both partners purified

B1: mature Pmt3 (S. pombe SUMO), residues 1-111 (natural protein, UniProt O13351 1-111, looked up)
chain: MSESPSANISDADKSAITPTTGDTSQQDVKPSTEHINLKVVGQDNNEVFFKIKKTTEFSKLMKIYCARQGKSMNSLRFLVDGERIRPDQTPAELDMEDGDQIEAVLEQLGG
notes: Pmt3 (SUMO), Schizosaccharomyces pombe, mature form, residues 1-111; Uniformly 15N-labelled for the NMR titrations; source: E. coli, purified by a procedure similar to that of the complex
  Kd: 78.3 ± 9.9 µM
